Test [1] deals with A*24:02 (human), P04439. Nature of the test: ProImmune REVEAL MHC class I-peptide binding assay.
In test [2] the target is A*02:01 (human), P04439. Nature of the test: ProImmune REVEAL MHC class I-peptide binding assay, A*02:01.
For the next test, the target named is T1, H-2Kb (mouse), P01901.
T1 chain: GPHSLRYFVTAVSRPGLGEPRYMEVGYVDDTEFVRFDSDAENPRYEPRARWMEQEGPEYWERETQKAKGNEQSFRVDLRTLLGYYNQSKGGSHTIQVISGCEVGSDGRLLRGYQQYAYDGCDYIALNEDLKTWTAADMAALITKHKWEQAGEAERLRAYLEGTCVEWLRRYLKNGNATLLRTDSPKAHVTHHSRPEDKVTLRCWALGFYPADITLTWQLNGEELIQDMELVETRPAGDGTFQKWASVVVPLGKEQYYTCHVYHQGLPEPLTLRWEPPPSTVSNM
Nature of the test: ProImmune REVEAL MHC class I-peptide binding assay.

The target in test [3] is A*02:01 (human), P04439. Put plainly: ProImmune REVEAL MHC class I-peptide binding assay.
The target of test [4] is A*11:01 (human), P04439. Nature of the test: ProImmune REVEAL MHC class I-peptide binding assay.
In a further test the target is B*07:02 (human), P01889. Put plainly: ProImmune REVEAL MHC class I-peptide binding assay.
Test [5] deals with A*24:02 (human), P04439. The conditions noted are these: modification not given.
In test [6] the target is A*02:01 (human), P04439. The conditions noted are these: chains peptide; modification not given.
A further test deals with B*27:05 (human), P01889. Nature of the test: ProImmune REVEAL MHC class I-peptide binding assay.
Test [7] deals with A*02:01 (human), P04439. The conditions noted are these: chains peptide; modification not given. This is another data set of the same source.
The target in test [8] is A*24:02 (human), P04439. The note with it: modification not given. The source holds these as a separate data set.
Test [9] has as its target A*24:02 (human), P04439. The conditions noted are these: modification not given. The source holds these as a separate data set.
The target in a further test is HLA-B*15:01. The conditions noted are these: chains peptide; modification not given.
For a further test, the target named is HLA-B*40:01. The note with it: chains peptide; modification not given.
Another test has as its target HLA-A*32:01. The note with it: chains peptide; modification not given.
For test [10], the target named is A*11:01 (human), P04439. The conditions noted are these: modification not given.
Test [11] addresses A*11:01 (human), P04439. The note with it: modification not given. This is another data set of the same source.
The target of test [12] is A*11:01 (human), P04439. The note with it: modification not given. This is another data set of the same source.
Test [13] has as its target A*11:01 (human), P04439. The note with it: modification not given. The source holds these as a separate data set.

“And” between values parts separate entries of the source, which are not always exact repeats. Equal entries are not always repeated. Where two headings read alike, the source gives them in different places.

B1: … (peptide)
peptide: HWTEAKMLL
modifications: not checked
In turn, B1 had an REVEAL score at 0 h with A*24:02 (human), P04439 [1] of 103.

B2: … (peptide)
peptide: TALTGATEI
modifications: not checked
As for B2, in the test with A*02:01 (human), P04439 [2], the REVEAL Score worked out at 0.9.

B3: … (peptide)
peptide: QQRVFKEKV
modifications: not checked
With B3, the REVEAL score at 0 h in the test with H-2Kb (mouse), P01901 was 63.4.

B4: … (peptide)
peptide: KLTYQNKVV
modifications: not checked
As for B4, the REVEAL score at 0 h with A*02:01 (human), P04439 [3] worked out at 92.3.

B5: … (peptide)
peptide: MWHVTRGAV
modifications: not checked
The molecule B5 registered an REVEAL score at 0 h with A*02:01 (human), P04439 [3] of 62.7.

B6: … (peptide)
peptide: VGTYGLNTF
modifications: not checked
In the test with A*24:02 (human), P04439 [1], B6 showed an REVEAL score at 0 h of 96.

B7: … (peptide)
peptide: ATFTMRLLS
modifications: not checked
Take B7: the REVEAL score at 0 h was 55.6 in the test with H-2Kb (mouse), P01901 and 58.5 with A*11:01 (human), P04439 [4].

B8: … (peptide)
peptide: SRNSTHEMY
modifications: not checked
In the test with B*07:02 (human), P01889, B8 returned an REVEAL score at 0 h of 52.

B9: … (peptide)
peptide: HATFTMRLL
modifications: not checked
In turn, B9 showed an REVEAL score at 0 h with H-2Kb (mouse), P01901 of 69.5.

B10: … (peptide)
peptide: IPERSWNSG
modifications: not checked
B10 gave an REVEAL score at 0 h in the test with B*07:02 (human), P01889 of 45.2.

B11: … (peptide)
peptide: GLYGNGVVT
modifications: not checked
In turn, B11 registered an REVEAL score at 0 h in the test with A*02:01 (human), P04439 [3] of 87.7.

B12: SEQ ID NO: 308 serotype 3 (peptide)
chain: SYAMCLNTF
B12 came in with an IC50 in the test with A*24:02 (human), P04439 [5] of 540 nM.

B13: … (peptide)
peptide: KQWFLDLPL
modifications: not checked
Consider B13, for which, in the test with A*02:01 (human), P04439 [2], the REVEAL Score worked out at 86. Also, the IC50 with A*02:01 (human), P04439 [6] was determined as 11 nM.

B14: … (peptide)
peptide: PERVILAGP
modifications: not checked
Molecule B14 returned an REVEAL score at 0 h with B*07:02 (human), P01889 of 56.1.

B15: … (peptide)
peptide: VVAAEMEEA
modifications: not checked
With B15, the REVEAL score at 0 h with A*02:01 (human), P04439 [3] is 92.2.

B16: … (peptide)
peptide: FKPGTSGSP
modifications: not checked
As to B16, the REVEAL score at 0 h amounted to 45.7 with H-2Kb (mouse), P01901 and 50.4 in the test with B*07:02 (human), P01889.

B17: … (peptide)
peptide: YFHRRDLRL
modifications: not checked
In the test with A*24:02 (human), P04439 [1], B17 yielded an REVEAL score at 0 h of 87.5.

B18: … (peptide)
peptide: ARGYISTRV
modifications: not checked
On to B18, for which the REVEAL score at 0 h with B*27:05 (human), P01889 was determined as 125.

B19: … (peptide)
peptide: YGLNTFTNM
modifications: not checked
Consider B19, for which the REVEAL score at 0 h with H-2Kb (mouse), P01901 was found to be 75.4.

B20: … (peptide)
peptide: LMCHATFTM
modifications: not checked
Regarding B20, the REVEAL score at 0 h with A*02:01 (human), P04439 [3] was found to be 72.9; with H-2Kb (mouse), P01901, 59; with B*27:05 (human), P01889 it was 98.2; with A*24:02 (human), P04439 [1] it was 99.5.

B21: … (peptide)
peptide: AISGDDCVV
modifications: not checked
In the test with A*02:01 (human), P04439 [3], B21 displayed an REVEAL score at 0 h of 91.1.

B22: … (peptide)
peptide: FKLTYQNKV
modifications: not checked
With B22, the REVEAL score at 0 h with B*27:05 (human), P01889 was 53.7.

B23: … (peptide)
peptide: RQWFFDLPL
modifications: not checked
In the test with A*02:01 (human), P04439 [2], B23 displayed an REVEAL Score of 80.5. The IC50 in the test with A*02:01 (human), P04439 [7] is 12 nM and 39 nM.

B24: SEQ ID NO: 308 serotype 1 (peptide)
chain: SYVMCTGSF
B24: in the test with A*24:02 (human), P04439 [8], the IC50 amounted to 104 nM.

B25: SEQ ID NO: 308 serotype 2 (peptide)
chain: SYSMCTGKF
In turn, B25 registered an IC50 with A*24:02 (human), P04439 [9] of 115 nM.

B26: SEQ ID NO: 310 serotype 3 (peptide)
chain: RQWFFDLPL
With B26, the IC50 stood at 80 nM with HLA-B*15:01, 51 nM with HLA-B*40:01 and 7 nM with HLA-A*32:01.

B27: … (peptide)
peptide: IVDLMCHAT
modifications: not checked
B27 came in with an REVEAL score at 0 h with A*02:01 (human), P04439 [3] of 62.7.

B28: … (peptide)
peptide: MGEAAAIFM
modifications: not checked
In turn, B28 registered an REVEAL score at 0 h with A*02:01 (human), P04439 [3] of 50.6.

B29: … (peptide)
peptide: PLSRNSTHE
modifications: not checked
In turn, B29 came in with an REVEAL score at 0 h with B*07:02 (human), P01889 of 65.

B30: … (peptide)
peptide: GTYGLNTFT
modifications: not checked
Molecule B30 had an REVEAL score at 0 h with A*11:01 (human), P04439 [4] of 63.6.

B31: … (peptide)
peptide: RRGDLPVWL
modifications: not checked
As to B31, in the test with B*27:05 (human), P01889, the REVEAL score at 0 h was found to be 145.

B32: … (peptide)
peptide: LSRNSTHEM
modifications: not checked
With B32, the REVEAL score at 0 h with H-2Kb (mouse), P01901 was found to be 51.1; in the test with B*07:02 (human), P01889, 124.

B33: SEQ ID NO: 309 serotype 4 (peptide)
chain: VTFKVPHAK
In turn, B33 came in with a half-maximal inhibitory concentration (IC50) with A*11:01 (human), P04439 [10] of 14 nM.

B34: SEQ ID NO: 309 serotype 3 (peptide)
chain: VTFKNAHAK
As to B34, the IC50 in the test with A*11:01 (human), P04439 [11] was 17 nM.

B35: SEQ ID NO: 309 serotype 1 (peptide)
chain: VTFKTAHAK
As for B35, the IC50 with A*11:01 (human), P04439 [12] was 16 nM.

B36: … (peptide)
peptide: GEAAAIFMT
modifications: not checked
With B36, the REVEAL score at 0 h with A*02:01 (human), P04439 [3] was 74.3; with A*11:01 (human), P04439 [4], 50.3; with A*24:02 (human), P04439 [1] it was 58.9.

B37: … (peptide)
peptide: LMYFHRRDL
modifications: not checked
On to B37, for which the REVEAL score at 0 h was 97.8 in the test with A*02:01 (human), P04439 [3]; 54.9 in the test with H-2Kb (mouse), P01901; 120 with B*07:02 (human), P01889.

B38: … (peptide)
peptide: LAPTRVVAA
modifications: not checked
As to B38, the REVEAL score at 0 h with H-2Kb (mouse), P01901 was determined as 102.

B39: … (peptide)
peptide: CHATFTMRL
modifications: not checked
With B39, the REVEAL score at 0 h came to 60.3 with H-2Kb (mouse), P01901 and 75.9 with A*24:02 (human), P04439 [1].

B40: … (peptide)
peptide: TVWFVPSIK
modifications: not checked
In the case of B40, the REVEAL score at 0 h in the test with A*11:01 (human), P04439 [4] stood at 92.2.

B41: … (peptide)
peptide: LMRRGDLPV
modifications: not checked
As to B41, the REVEAL score at 0 h with A*02:01 (human), P04439 [3] amounted to 82.3; with B*07:02 (human), P01889 it was 179.

B42: … (peptide)
peptide: ISGDDCVVK
modifications: not checked
For the molecule B42, the REVEAL score at 0 h with A*11:01 (human), P04439 [4] stood at 88.7.

B43: … (peptide)
peptide: WTEAKMLLD
modifications: not checked
On to B43, for which the REVEAL score at 0 h in the test with A*24:02 (human), P04439 [1] was 94.7.

B44: SEQ ID NO: 309 serotype 2 (peptide)
chain: VTFKNPHAK
Consider B44, for which the concentration for half-maximal inhibition (IC50) in the test with A*11:01 (human), P04439 [13] came out at 17 nM.

The IC50 is the point on the concentration scale where inhibition reaches its midpoint.

For the origin of these results see patent publication US20180280496A1.
